# The DeepSol protein solubility set
# Assay: soluble on expression in E. coli; label from the status in PepcDB or PDB records
row,Sequence,soluble on expression in E. coli
1,MGSDKIHHHHHHMIFKRKVYDKLIEWKTLAAGTSAVLLEGARRIGKSTIVEEFAKKEYDDYMILDFARENQDVKNNFVENMNDLDTFFRNLFLLKGKRLKGKNCVIIFDEVQLFPQARQAIKYLVADGRYEYIETGSLISIRKNVKDILIPSEEYRIKMYPMDFEEYLWAINDEVTIPTIRESFEKRKPLGDAIHRRIMKSFRTYMVVGGMPQAVDAYVSGKSYEQIDFVKRNILSLYEEDLAKYDTENREKASVIYRTIPEQLENKNSHFKLSMVDKNARYQNYMDAVSFISEAMIGNECINVTKPEVALELFADRSNFKLYMGDTGLLVTQIMKNRDSTDEDLYKALIIDNLGINQGMIVENIVAQMLRAAGHELYFHEYLYVPEGTTREKKYEIDFMIVKKKKICPIEVKSSNYMSHKSFDYLIQKYQLKCENRFIIYTKDLKYQDGIMYIPIYMTMLL,not soluble
2,MSLSHKSKKLLLVDDDQTVLKLMTEVLTDFGHCVTSVPSARHALNHFTSAGQAFDLLITDICMPGMNGVELIKAVRAHNGTLPIIAISGFSEPEDQNEIAHYDARMLTKPVDFQTLKQTIDALEGHHHHHH,not soluble
3,MGSSHHHHHHSSGLVPRGSHMKKNSLALSLTADQMVSALLDAEPPILYSEYDPTRPFSEASMMGLLTNLADRELVHMINWAKRVPGFVDLTLHDQVHLLECAWLEILMIGLVWRSMEHPVKLLFAPNLLLDRNQGKCVEGMVEIFDMLLATSSRFRMMNLQGEEFVCLKSIILLNSGVYTFLSSTLKSLEEKDHIHRVLDKITDTLIHLMAKAGLTLQQQHQRLAQLLLILSHIRHMSNKGMEHLYSMKCKNVVPLYDLLLEMLDAHRLHAP,not soluble
4,MVKRTVATNGDASGAHRAKKMSKTHASHIINAQEDYKHMYLSVQPLDIFCWGTGSMCELGLGPLAKNKEVKRPRLNPFLPRDEAKIISFAVGGMHTLALDEESNVWSWGCNDVGALGRDTSNAKEQLKDMDADDSSDDEDGDLNELESTPAKIPRESFPPLAEGHKVVQLAATDNMSCALFSNGEVYAWGTFRCNEGILGFYQDKIKIQKTPWKVPTFSKYNIVQLAPGKDHILFLDEEGMVFAWGNGQQNQLGRKVMERFRLKTLDPRPFGLRHVKYIASGENHCFALTKDNKLVSWGLNQFGQCGVSEDVEDGALVTKPKRLALPDNVVIRSIAAGEHHSLILSQDGDLYSCGRLDMFEVGIPKDNLPEYTYKDVHGKARAVPLPTKLNNVPKFKSVAAGSHHSVAVAQNGIAYSWGFGETYAVGLGPFEDDTEVPTRIKNTATQDHNIILVGCGGQFSVSGGVKLSDEDAEKRADEMDD,soluble
5,MDTTIGVIGNKVVHVIKENDSVKTAAEEMKKHNLGALVVIDDNDKIVGIITERDIVKVVAEGKLDAKVKDYMTRNVIGVTEDTPITDALEIMLDHGFRHLPIIGKDGKVIGIVSIRDLSKAILDPHFFQFKKEAADVKGSGYVCPVCGMEIDEYGYCGCGAGSG,soluble
6,MGSDKIHHHHHHMTTHTKPGLRPANPNFSSGPCAKRPGWSVEALKNAALGRSHRAKIGKTKLEQAIELTREILQVPADHRIGIVPASDTGAVEMALWSLLGERGVDMVAWESFGSGWVTDVVKQLKLPDVRKLEAGYGELPDLAKIDFDRDVVFTWNGTTSGVRVPNGDFIPADRKGLTICDATSAAFAQRLDFEKLDVVTFSWQKVLGGEGAHGMLILSPRAVARLESYKPAWPLPKIFRLTSGGKLIEGIFKGETINTPSMLCVEDYLDALHWAKSIGGLDVLVARADANAAVLDGFVDKSSWLGHLAVQPATRSNTSVCLSFTDPDVAALDADGQATFAKGLVSALDKEGVAYDIGSYRDAPPGLRIWCGATVETSDLETLLPWLDWAFAAQKASLKAAA,not soluble
7,PFKKRRTEDEIRKQCPWATLGRKGGRQPNIITSLELDSAVMEQNNLRFQKKYAEIEANEVRYEEYQTEDADYILVAFGSSARICNKTVQLARQQGIKAGILRPITLWPFPTKEIAKLADRAKGFLVAELNAGQMIEDVRLAVNGKVPVEHYGRMGGMLFSPDEILQALKEKVIK,not soluble
8,MTEFYSDTIGLPKTDPRLWRLRTDELGRESWEYLTPQQAANDPPSTFTQWLLQDPKFPQPHPERNKHSPDFSAFDACHNGASFFKLLQEPDSGIFPCQYKGPMFMTIGYVAVNYIAGIEIPEHERIELIRYIVNTAHPVDGGWGLHSVDKSTVFGTVLNYVILRLLGLPKDHPVCAKARSTLLRLGGAIGSPHWGKIWLSALNLYKWEGVNPAPPETWLLPYSLPMHPGRWWVHTRGVYIPVSYLSLVKFSCPMTPLLEELRNEIYTKPFDKINFSKNRNTVCGVDLYYPHSTTLNIANSLVVFYEKYLRNRFIYSLSKKKVYDLIKTELQNTDSLCIAPVNQAFCALVTLIEEGVDSEAFQRLQYRFKDALFHGPQGMTIMGTNGVQTWDCAFAIQYFFVAGLAERPEFYNTIVSAYKFLCHAQFDTECVPGSYRDKRKGAWGFSTKTQGYTVADCTAEAIKAIIMVKNSPVFSEVHHMISSERLFEGIDVLLNLQNIGSFEYGSFATYEKIKAPLAMETLNPAEVFGNIMVEYPYVECTDSSVLGLTYFHKYFDYRKEEIRTRIRIAIEFIKKSQLPDGSWYGSWGICFTYAGMFALEALHTVGETYENSSTVRKGCDFLVSKQMKDGGWGESMKSSELHSYVDSEKSLVVQTAWALIALLFAEYPNKEVIDRGIDLLKNRQEESGEWKFESVEGVFNHSCAIEYPSYRFLFPIKALGMYSRAYETHTL,soluble
9,MKPMTQEPSTLYAKLLGETASITWTELQPFFAKGALLWVELPLDLIEVAEAVAENDAARVSAWLADGQVGKVSETKALELVETDPQLWAVVVAPWVLIQNRANV,not soluble
10,MSLKLTGEESDTLRKIVLEECLPNQQQNQNPSPCAEVKPNAGYVVLKDLNGPLQYLLMPTYRINGTESPLLTDPSTPNFFWLAWQARDFMSKKYGQPVPDRAVSLAINSRTGHTQNHFHIHISCIRPDVREQLDKNLANISSRWLPLPGGLRGHEYLARRVTESELVQRSPFMMLAEEVPEAREHMGSYGLAMVRQSDNSFVLLATQRNLLTLNRASAEEIQDHECEILREGHHHHHH,soluble
11,SPEIMKDLSINFGKALDTCKKELDLPDSINEDFYKFWKEDYEITNRLTGCAIKCLSEKLEMVDADGKLHHGNAREFAMKHGADDAMAKQLVDLIHGCEKSIPPNDDRCMEVLSIAMCFKKEIHNLKWAPNMEVVVGEVLAEV,soluble
12,RLSDVLSADVYQQAHSPLSLALGVDIGGHPMVVDLAKMPHLLVAGTTGSGKSVGINAMILSILFKASPEQVRLIMVDPKMLELSVYDGIPHLLTPVVTDMKEAASALRWCVEEMERRYRLMAALGVRNLAGYNTKITEAAANGQPLLNPLWKPVDSMDETAPELQALPYVVVVIDELADMMMVVGKKVEQLIARIAQKARAAGIHMILATQRPSV,not soluble
13,MSFDSLGLSPDILRAVAEQGYREPTPIQQQAIPAVLEGRDLMASAQTGTGKTAGFTLPLLQHLITRQPHAKGRRPVRALILTPTRELAAQIGENVRDYSKYLNIRSLVVFGGVSINPQMMKLRGGVDVLVATPGRLLDLEHQNAVKLDQVEILVLDEADRMLDMGFIHDIRRVLTKLPAKRQNLLFSATFSDDIKALAEKLLHNPLEIEVARRNTASDQVTQHVHFVDKKRKRELLSHMIGKGNWQQVLVFTRTKHGANHLAEQLNKDGIRSAAIHGNKSQGARTRALADFKSGDIRVLVATDIAARGLDIEELPHVVNYELPNVPEDYVHRIGRTGRAAATGEALSLVCVDEHKLLRDIEKLLKKEIPRIAIPGYEPDPSIKAEPIQNGRQQRGGGGRGQGGGRGQQQPRRGEGGAKSASAKPAEKPSRRLGDAKPAGEQQRRRRPRKPAAAQ,soluble
14,GPGSMRFRRVLAPLAASPHRWKTQRSPRGEETMGEGGAIEPDTSEAWVRNYVARAVREGRQTKESAEYFESIMNDQVEFRQYIQEARRLLNNQDPRTLTKYQRGHFAERLSRQMSGVAAERLMRAHAEESNARRHTQDGTPTGENYWFEAGNTLASPSVPGFVKDEVMREMREDRKKTSAAFEESEELQAMADKDEAFAEHLRRQRQHLFRSNDDVN,not soluble
15,MRTSIATVCLSGTLAEKLRAAADAGFDGVEIFEQDLVVSPHSAEQIRQRAQDLGLTLDLFQPFRDFEGVEEEQFLKNLHRLEEKFKLMNRLGIEMILLCSNVGTATINDDDLFVEQLHRAADLAEKYNVKIAYEALAWGKFVNDFEHAHALVEKVNHKALGTCLDTFHILSRGWETDEVENIPAEKIFFVQLADAPKLSMDILSWSRHHRVFPGEGDFDLVKFMVHLAKTGYDGPISLEIFNDSFRKAEVGRTAIDGLRSLRWLEDQTWHALNAEDRPSALELR,not soluble
16,MLQVRMLLRIPTVLRSQELIDKAFSRASRIEEPYFPDKIERIRKEVQDRISTIESISRSFLDRLVKKFPSINNLHPFYSSLIDLMFDIDQYKISLSKIDRTSQMIEQISGEHIRRLKAAKTVEDANRIMRSYYGRFASLVHEIDQDLLFLGKCRDYMKKIPDIDVNLRTYIIAGMPNVGKSSLLAALTTKKPEIAPYPFTTKSVIIGIAEHGYERIQFIDTPGILDRDFDEMNQIEKNAVLALRHIKGTVIFLFDYSDQSLYDPEMQEHLYQQIREHINPDIIRVQTKMDISREKREKIAISVNSEGGLDPLKAIIFGRADDDVRRLEHHHHHH,not soluble
17,PVLFLALPALAQERKKVGVVLSGGGAKGVAHIQALKVIEEAGIPIDYIVGTSMGSIIGGLYSIGYTPQQLDSMVRKQDWMFLLSDRVKRSAMSLNEREKSEKYVFSFPFTKSPKDAVSGGIIKGQNLANLFTELTVGYHDSVDFNKLPIPFACVSQNIVNGEQIVFHNGILATAMRASMAIPGVFTPVRKDSMILIDGGMINNYPVDVARSMGADIIIGVDVQNNLKGID,not soluble
18,MENAFKNKALYHQLVDLLQERIETCMIPHDKLPSERELTAQYGVSRTTVRLALQELENRGSIYRRHGKGTFVSDIKKEAADLAGAYSFTEQMKGLGRKPHTRILSFEKLEADKFICQHLNLSLGEAVFKLSRLRIADNEPLMVEDTYLPVKFFLSLTDQLLRSKPLYDLFSEDFKQTVRLADEELYASIASKEDAKLLMIPEGAPVLHLARQTYNMKNEIIEFTLSVARADQFHYQIRHIRNS,not soluble
19,MEDVWLQAQSNLAKVLTHQTFTTWIEPIRFAGAHKNTLLLEAPNQFIRDRVRESYLPMILESVRSLTDSHFQVELQVAARQQEKTAKSPRKSHTEDELGPVESEKCAPAEFSTNLNAKYTFDTFVCGGSNQFAHAAALSVANNPAGKYNPLFIYGGVGLGKTHLLTAIGNQVLTKNRKARVCFYTSEKFMNELINCLRYQKMEQFRNKFRKMDLLLIDDIQFIAGKERTQEEFFHTFNALYESHKQIVVTSDKFPKDIPGLEERLRSRFEWGLIADIQPPDTETKVAILSKKADSDGIRLPDDVALFLASSASTNVRELEGMLIRLGAVASLTGKNITLDMAREVLKDIIVDKTKEVTVEMIQKYVADHFNIKVAELKSDKRLKALVVPRQIAIYLCRDLTKASYPDIGEKFGGKDHSTIIHSVKKVDKLLSQDFELKSTIETLRKGLLNLEHHHHHH,soluble
20,MNIKEKIVVLRNTEDGSFLKSFKNKKDVLAYNVELTDSIQLASFLPEEAYNIQKEKIDNLAETLGCDVVVIEASYDLKFVDGEDVPELTKEQKVKSMVNGMFEQVFGGE,not soluble
